The target in this assay is PADI4 (peptidyl-arginine deiminase 4), recombinant, dimeric (human) (UniProt Q9UM07). Put plainly: BLI.
PADI4 (peptidyl-arginine deiminase 4), recombinant, dimeric (human), sequence (Q9UM07 whole entry): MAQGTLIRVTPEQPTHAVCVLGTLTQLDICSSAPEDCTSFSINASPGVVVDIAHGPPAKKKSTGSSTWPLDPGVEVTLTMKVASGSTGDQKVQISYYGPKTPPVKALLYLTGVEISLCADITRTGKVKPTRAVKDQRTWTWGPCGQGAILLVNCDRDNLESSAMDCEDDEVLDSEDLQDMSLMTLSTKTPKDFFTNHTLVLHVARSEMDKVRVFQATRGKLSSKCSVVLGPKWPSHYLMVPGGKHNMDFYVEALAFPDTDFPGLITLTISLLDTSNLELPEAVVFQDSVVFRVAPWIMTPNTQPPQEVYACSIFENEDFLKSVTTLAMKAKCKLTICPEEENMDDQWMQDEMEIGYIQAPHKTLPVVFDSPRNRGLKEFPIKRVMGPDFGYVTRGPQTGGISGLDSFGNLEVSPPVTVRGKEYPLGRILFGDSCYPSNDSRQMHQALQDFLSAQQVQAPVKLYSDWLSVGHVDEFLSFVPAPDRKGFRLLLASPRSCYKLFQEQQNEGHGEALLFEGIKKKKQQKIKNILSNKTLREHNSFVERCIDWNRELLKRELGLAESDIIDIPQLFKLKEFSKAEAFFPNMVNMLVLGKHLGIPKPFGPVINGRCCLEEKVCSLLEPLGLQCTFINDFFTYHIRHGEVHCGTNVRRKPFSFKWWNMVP

As a reminder, the Kd is the free concentration of one partner at which half of the binding sites on the other are occupied at equilibrium, for simple one-to-one binding. One may read the koff as a measure of how fast the partners let go of each other. The kon is a measure of how fast the partners come together. “N-MDM2 derived from GST-tagged N-MDM2, GST-tag removed with thrombin (domain or fragment)”: the Kd stood at 2000 nM, the koff came out at 0.3 s⁻¹ and the kon was determined as 170000 M⁻¹ s⁻¹.

The record behind these values is article PMC10364586.
